Data: PMC5159555 (Nucleic Acids Research, 2016)
Changes are numbered by the printed parent chain. Names and notes keep the numbering of the source. Like-named read-outs stand apart in the source and are kept apart here. Values belong to the binder of their own block, whether it stands above or below them.

Legend:
[1] = biological target: chicken FANCD2 (chicken, UniProt Q68Y81 1-1439); experiment: SEC
[2] = biological target: T1, FANCI-FANCD2 (I-D) complex (chicken, UniProt B0I564 1-1338; Q68Y81 1-1439); experiment: pull-down
T1 sequence (Q68Y81 whole entry, one chain of several): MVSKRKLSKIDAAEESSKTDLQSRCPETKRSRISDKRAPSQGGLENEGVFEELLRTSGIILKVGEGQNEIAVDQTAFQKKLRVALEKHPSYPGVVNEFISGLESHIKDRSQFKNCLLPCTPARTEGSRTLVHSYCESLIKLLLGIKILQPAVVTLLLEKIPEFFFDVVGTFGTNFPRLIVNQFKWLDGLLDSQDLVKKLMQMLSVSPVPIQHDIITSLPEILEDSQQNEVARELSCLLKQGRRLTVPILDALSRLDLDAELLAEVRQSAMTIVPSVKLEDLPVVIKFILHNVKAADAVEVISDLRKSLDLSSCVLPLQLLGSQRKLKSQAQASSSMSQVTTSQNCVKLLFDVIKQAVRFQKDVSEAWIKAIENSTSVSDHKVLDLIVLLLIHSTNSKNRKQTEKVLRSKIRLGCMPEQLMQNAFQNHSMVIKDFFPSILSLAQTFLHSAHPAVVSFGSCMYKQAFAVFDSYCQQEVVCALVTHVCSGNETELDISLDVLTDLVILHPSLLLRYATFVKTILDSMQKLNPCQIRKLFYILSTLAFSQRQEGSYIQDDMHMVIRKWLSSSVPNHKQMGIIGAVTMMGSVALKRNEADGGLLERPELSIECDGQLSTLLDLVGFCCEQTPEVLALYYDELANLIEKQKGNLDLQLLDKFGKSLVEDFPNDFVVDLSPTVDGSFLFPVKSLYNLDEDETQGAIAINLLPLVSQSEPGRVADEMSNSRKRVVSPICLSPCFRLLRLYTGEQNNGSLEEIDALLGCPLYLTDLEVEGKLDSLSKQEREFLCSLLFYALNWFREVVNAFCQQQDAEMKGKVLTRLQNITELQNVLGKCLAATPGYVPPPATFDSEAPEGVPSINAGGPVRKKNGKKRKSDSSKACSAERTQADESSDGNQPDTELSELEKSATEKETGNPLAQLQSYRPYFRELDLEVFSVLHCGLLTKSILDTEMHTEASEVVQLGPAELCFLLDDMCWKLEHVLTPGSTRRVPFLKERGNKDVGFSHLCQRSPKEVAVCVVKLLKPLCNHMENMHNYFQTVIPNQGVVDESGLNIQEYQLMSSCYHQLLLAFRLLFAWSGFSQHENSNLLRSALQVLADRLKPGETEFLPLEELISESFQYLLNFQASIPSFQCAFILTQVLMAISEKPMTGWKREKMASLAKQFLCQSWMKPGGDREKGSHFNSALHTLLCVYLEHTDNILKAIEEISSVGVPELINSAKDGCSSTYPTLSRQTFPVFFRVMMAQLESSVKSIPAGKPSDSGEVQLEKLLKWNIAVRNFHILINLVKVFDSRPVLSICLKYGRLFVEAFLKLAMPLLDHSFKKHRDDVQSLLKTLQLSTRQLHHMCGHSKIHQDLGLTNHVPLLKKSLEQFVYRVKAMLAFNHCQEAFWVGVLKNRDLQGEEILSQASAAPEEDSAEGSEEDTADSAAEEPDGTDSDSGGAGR

[3] = biological target: His6-tagged chicken FANCD2 (chicken, UniProt Q68Y81 1-1439); experiment: pull-down
Chain of His6-tagged chicken FANCD2 (Q68Y81 whole entry): as the sequence (Q68Y81 whole entry, one chain of several) above

[4] = biological target: His6-tagged FANCD2 complexed with FANCI (chicken, UniProt Q68Y81 1-1439; B0I564 1-1338); experiment: pull-down
Chain of His6-tagged FANCD2 complexed with FANCI (Q68Y81 whole entry, one chain of several): as above

[5] = biological target: T2, His6-tagged chicken FANCI (chicken, UniProt B0I564 1-1338); experiment: pull-down
T2 sequence (looked up): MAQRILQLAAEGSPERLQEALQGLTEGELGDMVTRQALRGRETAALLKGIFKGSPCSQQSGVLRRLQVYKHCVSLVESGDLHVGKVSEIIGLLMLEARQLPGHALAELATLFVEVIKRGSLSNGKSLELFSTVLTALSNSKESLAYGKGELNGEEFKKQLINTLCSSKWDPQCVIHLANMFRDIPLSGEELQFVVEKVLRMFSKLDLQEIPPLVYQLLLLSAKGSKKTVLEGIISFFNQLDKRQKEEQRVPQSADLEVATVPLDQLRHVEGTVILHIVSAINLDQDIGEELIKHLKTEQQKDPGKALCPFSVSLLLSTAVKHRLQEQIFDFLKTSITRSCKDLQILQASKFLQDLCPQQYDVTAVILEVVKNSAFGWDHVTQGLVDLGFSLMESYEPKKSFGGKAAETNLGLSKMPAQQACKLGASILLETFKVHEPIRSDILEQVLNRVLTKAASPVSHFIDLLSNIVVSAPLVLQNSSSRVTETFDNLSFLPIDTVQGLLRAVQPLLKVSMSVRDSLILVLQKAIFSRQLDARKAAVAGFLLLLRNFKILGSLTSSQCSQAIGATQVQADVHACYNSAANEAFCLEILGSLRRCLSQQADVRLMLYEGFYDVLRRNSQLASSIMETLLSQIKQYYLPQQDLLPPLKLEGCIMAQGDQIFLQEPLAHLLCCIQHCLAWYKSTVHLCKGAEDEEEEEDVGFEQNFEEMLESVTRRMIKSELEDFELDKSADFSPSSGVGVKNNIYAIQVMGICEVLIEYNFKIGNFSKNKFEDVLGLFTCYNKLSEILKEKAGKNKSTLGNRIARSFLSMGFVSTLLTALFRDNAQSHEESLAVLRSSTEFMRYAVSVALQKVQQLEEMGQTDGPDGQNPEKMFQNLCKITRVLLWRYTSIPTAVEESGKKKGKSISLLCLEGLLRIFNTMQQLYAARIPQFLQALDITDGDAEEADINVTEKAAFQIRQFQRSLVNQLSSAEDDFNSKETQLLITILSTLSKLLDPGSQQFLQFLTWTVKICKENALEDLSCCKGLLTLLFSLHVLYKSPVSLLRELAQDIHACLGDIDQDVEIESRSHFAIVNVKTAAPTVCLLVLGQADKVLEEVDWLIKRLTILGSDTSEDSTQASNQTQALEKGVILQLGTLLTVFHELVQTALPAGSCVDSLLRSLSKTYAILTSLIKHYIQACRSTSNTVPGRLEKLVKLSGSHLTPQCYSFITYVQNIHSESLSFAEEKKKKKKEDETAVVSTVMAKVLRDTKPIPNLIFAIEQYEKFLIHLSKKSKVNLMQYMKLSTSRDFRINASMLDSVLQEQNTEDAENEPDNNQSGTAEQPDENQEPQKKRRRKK

[6] = biological target: T1, FANCI-FANCD2 (I-D) complex; experiment: pull-down; remark: listed apart in the source

Chain of chicken FANCD2 (Q68Y81 whole entry): as the sequence (Q68Y81 whole entry, one chain of several) above

binding result [1]: binds
B1: chicken FANCI (natural protein, UniProt B0I564 1-1338, looked up)
chain: T2 sequence (looked up)

binding result [2]: binds
binding result [3]: binds
binding result [4]: binds
binding result [5]: binds
B2: chicken RAD51 (natural protein, UniProt P37383 1-339, looked up)
chain: MAMQVQFEASTDTSAEEESFGPEPISRLEQCGINANDVKKLEEAGYHTVESVAHAPKKELLNIKGISEAKADKILAEAAKLVPMGFTTATEFHQRRSEIIQITTGSKELDKLLQGGIETGSITELFGEFRTGKTQLCHTLAVTCQLPIDRGGGEGKAMYIDTEGTFRPERLLAVAERYGLSGSDVLDNVAYARGFNTDHQTQLLYQASAMMAESRYALLIVDSATALYRTDYSGRGELSARQMHLARFLRMLLRLADEFGVAVVITNQVVAQVDGAAMFAADPKKPIGGNIIAHASTTRLYLRKGRGETRICKIYDSPCLPEAEAMFAINADGVGDAKE

binding result [6]: binds
B3: His6-tagged chicken RAD51 (natural protein, UniProt P37383 1-339, looked up)
chain: B2 chain

binding result [6]: binds
B4: His6-tagged chicken RAD51 F86E mutant (natural protein, UniProt P37383 1-339, looked up)
chain: B2 chain with F86E
